Measured values taken from PMC4287381 (Virology, 2009).

Target: GST-p53 C-terminal domain (residues 300–393) (human, UniProt P04637 300-393)
Assay: pull-down

Chain of GST-p53 C-terminal domain (residues 300–393) (P04637 300-393): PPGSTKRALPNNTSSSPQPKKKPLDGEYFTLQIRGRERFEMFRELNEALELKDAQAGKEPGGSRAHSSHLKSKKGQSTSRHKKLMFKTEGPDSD

B1: Full-length EBNA3C, in vitro translated, 35S-labelled (natural protein)
chain: MESFEGQGDSRQSPDNERGDNVQTTGEHDQDPGPGPPSSGASERLVPEESYSRDQQPWGQSRGDENRGWMQRIRRRRRRRAALSGHLLDTEDNVPPWLPPHDITPYTARNIRDAACRAVKQSHLQALSNLILDSGLDTQHILCFVMAARQRLQDIRRGPLVAEGGVGWRHWLLTSPSQSWPMGYRTATLRTLTPVPNRVGADSIMLTATFGCQNAARTLNTFSATVWTPPHAGPREQERYAREAEVRFLRGKWQRRYRRIYDLIELCGSLHHIWQNLLQTEENLLDFVRFMGVMSSCNNPAVNYWFHKTIGNFKPYYPWNAPPNENPYHARRGIKEHVIQNAFRKAQIQGLSMLATGGEPRGDATSETSSDEDTGRQGSDVELESSDDELPYIDPNMEPVQQRPVMFVSRVPAKKPRKLPWPTPKTHPVKRTNVKTSDRSDKAEAQSTPERPGPSEQSSVTVEPAHPTPVEMPMVILHQPPPVPKPVPVKPTPPPSRRRRGACVVYDDDVIEVIDVETTEDSSSVSQPNKPHRKHQDGFQRSGRRQKRAAPPTVSPSDTGPPAVGPPAAGPPAAGPPAAGPPAAGPPAAGPPAAGPRILAPLSAGPPAAGPHIVTPPSARPRIMAPPVVRMFMRERQLPQSTGRKPQCFWEMRAGREITQMQQEPSSHLQSATQPTTPRPSWAPSVCALSVMDAGKAQPIESSHLSSMSPTQPISHEEQPRYEDPDAPLDLSLHPDVAAQPAPQAPYQGYQEPPAPQAPYQGYQEPPPPQAPYQGYQEPPAHGLQSSSYPGYAGPWTPRSQHPCYRHPWAPWSQDPVHGHTQGPWDPRAPHLPPQWDGSAGHGQDQVSQFPHLQSETGPPRLQLSLVPLVSSSAPSWSSPQPRAPIRPIPTRFPPPPMPLQDSMAVGCDSSGTACPSMPFASDYSQGAFTPLDINATTPKRPRVEESSHGPARCSQATAEAQEILSDNSEISVFPKDAKQTDYDASTESELD
modifications: 35S methionine label
B1 was tested, and the “fold interaction against the DNA binding domain of p53 (residues 100–300)” value was 1.7 fold.
